Measured values: patent publication US20240132857
Residue numbers refer to the chain shown, from its start. Numbers in names are those of the source.

B1: Ube2N^D119A (protein)
chain: GMAGLPRRIIKETQRLLAEPVPGIKAEPDESNARYFHVVIAGPQDSPFEGGTFKLELFLPEEYPMAAPKVRFMTKIYHPNVDKLGRICLDILKDKWSPALQIRTVLLSIQALLSAPNPDAPLANDVAEQWKTNEAQAIETARAWTRLYAMNNI
B2: Ube2N^D119N (protein)
chain: B1 chain with A120N
B3: Ube2N^N123A (protein)
chain: B1 chain with A120D, N124A
B4: Ube2N^D124A (protein)
chain: B1 chain with A120D, D125A

Molecular target: Ub^1-74, P0CG48
Sequence (P0CG48 whole entry, looked up, tested part not stated): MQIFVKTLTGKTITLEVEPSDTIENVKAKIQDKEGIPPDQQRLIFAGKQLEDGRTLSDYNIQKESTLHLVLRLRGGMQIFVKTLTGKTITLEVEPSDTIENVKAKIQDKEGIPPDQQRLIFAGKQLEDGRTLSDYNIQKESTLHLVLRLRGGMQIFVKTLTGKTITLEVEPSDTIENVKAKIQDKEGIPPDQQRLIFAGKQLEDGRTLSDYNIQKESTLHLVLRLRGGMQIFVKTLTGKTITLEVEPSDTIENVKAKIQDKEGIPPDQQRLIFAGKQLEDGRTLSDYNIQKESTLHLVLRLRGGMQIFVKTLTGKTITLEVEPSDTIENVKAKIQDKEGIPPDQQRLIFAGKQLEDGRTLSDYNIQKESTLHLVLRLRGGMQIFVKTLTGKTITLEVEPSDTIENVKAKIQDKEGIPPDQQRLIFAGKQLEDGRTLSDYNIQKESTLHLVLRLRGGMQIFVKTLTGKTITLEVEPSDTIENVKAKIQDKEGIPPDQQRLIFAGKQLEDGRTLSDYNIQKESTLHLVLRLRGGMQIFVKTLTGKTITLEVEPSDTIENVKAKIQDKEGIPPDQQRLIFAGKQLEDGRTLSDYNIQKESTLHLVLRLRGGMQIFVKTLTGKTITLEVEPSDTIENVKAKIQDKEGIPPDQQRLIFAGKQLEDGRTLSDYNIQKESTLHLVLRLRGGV

Row | Protein | KM of di-ubiquitin formation, fold increase against wild-type Ube2N | kcat of di-ubiquitin formation, fold reduction against wild-type Ube2N
1 | B1 | modestly increased the KM by ˜4 and ˜7-fold, respectively | Mutation to alanine reduced kcat 100-fold
2 | B2 | modestly increased the KM by ˜4 and ˜7-fold, respectively | mutation to asparagine 30-fold
3 | B3 |  | The ˜3-fold reduction in kcat
4 | B4 |  | The ˜3-fold reduction in kcat
